The text below walks through data of patent US20200317768A1 (published 2020).

Where a chain is given by its changes, count along the chain named.

Common to all, as to test: SPR (Biacore), antibody captured, FcgR analyte
Assay [1] addresses T1, cynomolgus monkey FcγRIIa1 extracellular domain, C-terminal His-tag (cynomolgus monkey).
T1 construct: also called cyno FcγRIIa1; cynoFcgRIIa1
T1 chain: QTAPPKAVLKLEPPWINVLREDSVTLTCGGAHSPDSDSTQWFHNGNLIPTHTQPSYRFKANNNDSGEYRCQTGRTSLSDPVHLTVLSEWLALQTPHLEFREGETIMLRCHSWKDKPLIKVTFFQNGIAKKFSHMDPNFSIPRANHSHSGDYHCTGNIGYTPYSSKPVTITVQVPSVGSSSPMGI
How it is done:
(§1) The kinetic analysis of interactions between these antibodies and FcγR was carried out using BIACORE® T200 or BIACORE® 4000 (GE Healthcare). HBS-EP+ (GE Healthcare) was used as the running buffer, and the measurement temperature was set to 25° C. A chip produced by immobilizing Protein A. Protein A/G or mouse anti-human IgG kappa light chain (BD Biosciences) onto a Series S Sensor Chip CM4 or CM5 (GE Healthcare) by the amine-coupling method was used. […] After the measurement, the antibody captured on the chip was washed off by allowing reaction with 10 mM glycine-HCl, pH1.5 and 25 mM NaOH so that the chip was regenerated and used repeatedly. The sensorgrams obtained as measurement results were analyzed by the 1:1 Langmuir binding model using the BIACORE® Evaluation Software to calculate the binding rate constant ka (L/mol/s) and dissociation rate constant kd (l/s), and the dissociation constant KD (mol/L) was calculated from these values. […] Regarding such interactions, KD values were calculated using the following 1:1 binding model described in BIACORE® T100 Software Handbook BR1006-48 Edition AE.
(§2) The behavior of interacting molecules according to the 1:1 binding model on BIACORE® can be described by Equation 1: Req=C·R max/(KD+C)+RI, wherein, Req is a plot of steady-state binding levels to analyte concentration. C is concentration, RI is bulk refractive index contribution in the sample, and Rmax is analyte binding capacity of the surface. When this equation is rearranged, KD can be expressed as Equation 2: KD=C·Rmax/(Req−RI)−C. KD can be calculated by substituting the values of Rmax, RI, and C into Equation 1 or Equation 2. From the current measurement conditions, RI=0, C=2 μmol/L can be used.

Assay [2] deals with T2, cynomolgus monkey FcγRIIa2 extracellular domain, C-terminal His-tag (cynomolgus monkey).
T2 construct: also called cyno FcγRIIa2; cynoFcgRIIa2
T2 chain: T1 chain with P95T, T121A, I127K, A128S, K130N, D135N, R142Q
How it is done:
as §1, §2

Assay [3] addresses T3, cynomolgus monkey FcγRIIa3 extracellular domain, C-terminal His-tag (cynomolgus monkey).
T3 construct: also called cyno FcγRIIa3; cynoFcgRIIa3
T3 chain: T1 chain with P95T, T121A, A128S, H133P, D135N
On the procedure: as §1, §2

For assay [4], the target named is T4, cynomolgus monkey FcγRIIb extracellular domain, C-terminal His-tag (cynomolgus monkey).
T4 construct: also called cyno FcγRIIb; cynoFcγRIIb
T4 chain: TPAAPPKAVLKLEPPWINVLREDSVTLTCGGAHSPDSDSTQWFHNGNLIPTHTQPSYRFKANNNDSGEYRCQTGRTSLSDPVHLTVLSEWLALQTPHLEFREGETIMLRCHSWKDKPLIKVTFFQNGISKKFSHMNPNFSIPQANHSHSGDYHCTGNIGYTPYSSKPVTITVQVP
On the procedure:
as §1, §2

For assay [5], the target named is T5, cynomolgus monkey FcγRIIIaS extracellular domain, C-terminal His-tag (cynomolgus monkey, UniProt Q8SPW2 21-206 at identity 1.00)).
T5 construct: also called cyno FcγRIIIaS; cynoFcγRIIIaS
T5 chain: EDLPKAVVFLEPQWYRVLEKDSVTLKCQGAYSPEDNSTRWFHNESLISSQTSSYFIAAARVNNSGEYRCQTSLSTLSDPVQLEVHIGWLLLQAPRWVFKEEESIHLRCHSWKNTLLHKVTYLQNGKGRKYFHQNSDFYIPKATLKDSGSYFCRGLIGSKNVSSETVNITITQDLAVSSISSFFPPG
How it is done:
as §1, §2

Assay [6] deals with T6, human FcγRIIaH extracellular domain, C-terminal His-tag (human, UniProt P12318 34-217).
T6 construct: also called human FcγRIIa (type H); FcgRIIaH
T6 sequence: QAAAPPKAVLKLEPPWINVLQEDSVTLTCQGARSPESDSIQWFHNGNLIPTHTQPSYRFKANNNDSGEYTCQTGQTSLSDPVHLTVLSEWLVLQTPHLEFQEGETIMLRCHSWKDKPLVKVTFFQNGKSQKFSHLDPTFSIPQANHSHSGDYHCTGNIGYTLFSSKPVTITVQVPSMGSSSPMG
How it is done:
as §1, §2

Assay [7] has as its target T7, human FcγRIIaR extracellular domain, C-terminal His-tag (human, UniProt P12318 34-217).
T7 construct: also called human FcγRIIa (type R); FcgRIIaR
T7 chain: T6 sequence with H134R
On the procedure:
as §1, §2

In assay [8] the target is T8, human FcγRIIb extracellular domain, C-terminal His-tag (human, UniProt P31994 43-217).
T8 construct: also called human FcgRIIb; FcgRIIb
T8 sequence: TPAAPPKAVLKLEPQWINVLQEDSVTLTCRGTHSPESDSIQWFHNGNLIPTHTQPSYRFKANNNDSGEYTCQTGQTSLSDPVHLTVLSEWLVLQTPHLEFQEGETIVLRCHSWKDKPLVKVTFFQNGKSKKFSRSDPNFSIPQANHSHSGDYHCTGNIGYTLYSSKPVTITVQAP
On the procedure:
as §1, §2

Assay [9] addresses T9, human FcγRIIIaV extracellular domain, C-terminal His-tag (human, UniProt P08637 17-208).
T9 construct: also called human FcgRIIIaV; FcgRIIIaV
On the procedure: as §1, §2

T9 sequence (P08637 17-208 F176V): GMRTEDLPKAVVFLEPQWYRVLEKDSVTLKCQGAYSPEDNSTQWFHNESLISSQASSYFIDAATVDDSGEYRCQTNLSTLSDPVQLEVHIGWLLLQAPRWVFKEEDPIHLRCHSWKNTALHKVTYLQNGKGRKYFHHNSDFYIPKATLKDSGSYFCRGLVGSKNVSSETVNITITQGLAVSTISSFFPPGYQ

B1: M103205H795-MY198/M103202L889-SK1 (antibody, human IgG1, kappa)
heavy: QVTLKESGPVLVKPTETLTLTCTVSGIDLSHDDISWVRQAPGKGLEWVGIISYAGSTYYASWAKGRLTISKDTSKNQVVLTMTNMDPVDTATYYCARGVPAYSHGGDLWGQGTLVTVSSASTKGPSVFPLAPSSKSTSGGTAALGCLVKDYFPEPVTVSWNSGALTSGVHTFPAVLQSSGLYSLSSVVTVPSSSLGTQTYICNVNHKPSNTKVDKKVEPKSCDKTHTCPPCPAPELLNGPVVFLFPPKPKDTLMISRTPEVTCVVVDVSDEDPEVKFNWYVDGVEVHNAKTKPREEQYNSTYRVVSVLTVLHQDWLNGKEYKCKVSNKALPKPIEKTISKAKGQPREPQVYTLPPSREEMTKNQVSLTCLVKGFYPSDIAVEWESNGQPENNYKTTPMVLDSDGSFFLYSKLTVDKSRWQQGNVFSCSVMHEALHNHYTQKSLSLSP
light: DIVMTQSPATLSLSPGERATLSCTSSQSVYHANWLSWFQQKPGQPPKLLIYWASTLAYGVPSRFSGSGSGTDFTLTISSLQPEDAATYYCAGGYGGGRYAFGQGTKVEIKRTVAAPSVFIFPPSDEQLKSGTASVVCLLNNFYPREAKVQWKVDNALQSGNSQESVTEQDSKDSTYSLSSTLTLSKADYEKHKVYACEVTHQGLSSPVTKSFNRGEC
notes: Substitutions introduced into M103205H795-SG1; expressed with M103202L889-SK1 as light chain
Consider B1, for which the Kd – broadly, the constant that tells how readily two partners part at equilibrium – in assay [1] is 440 nM; in [2], 350 nM; in assay [3], 1400 nM; in assay [4], 240 nM; in assay [5], 2700 nM; in assay [6], 580 nM. Further, the Kd in [7] turned out to be 800 nM; in assay [8], 420 nM; in assay [9] it was 8900 nM.

B2: M103205H795-MY200/M103202L889-SK1 (antibody, human IgG1, kappa)
heavy: B1 heavy with D270E, M398P
light: B1 light
notes: as for B1
For B2, the Kd was determined as 1700 nM in [1]; 1500 nM in assay [2]; 5000 nM in [3]; 1100 nM in assay [4]; 4400 nM in assay [5]; 1700 nM in assay [6]. The Kd in assay [7] is 27000 nM; in [8], 1400 nM; in assay [9] it was 15000 nM.

B3: M103205H795-MY206/M103202L889-SK1 (antibody, human IgG1, kappa)
heavy: B1 heavy with Q297L, M398P
light: B1 light
notes: as for B1
Take B3: the Kd amounted to 520 nM in assay [1]; 790 nM in assay [2]; 5000 nM in assay [3]; 450 nM in assay [4]; 5300 nM in assay [5]; 1000 nM in assay [6]. Also, the Kd was 1400 nM in [7], 800 nM in assay [8] and 8200 nM in [9].

B4: M103205H795-MY204/M103202L889-SK1 (antibody, human IgG1, kappa)
heavy: B1 heavy with D270E, Q297L, M398P
light: B1 light
notes: as for B1
For the molecule B4, the Kd worked out at 1300 nM in assay [1]; 1400 nM in assay [2]; 5200 nM in assay [3]; 810 nM in [4]; 3500 nM in [5]; 1300 nM in assay [6]. For the same molecule, the Kd in assay [7] was found to be 2800 nM; in [8] it was 1300 nM; in assay [9], 13000 nM.

B5: M103205H795-MY202/M103202L889-SK1 (antibody, human IgG1, kappa)
heavy: B1 heavy with M398P
light: B1 light
notes: as for B1
Take B5: the Kd was determined as 860 nM in assay [1]; 640 nM in assay [2]; 22000 nM in [3]; 460 nM in assay [4]; 4000 nM in assay [5]; 12000 nM in [6]. The values for the Kd in assay [7], in assay [8] and in assay [9] were 1200 nM, 710 nM and 9400 nM, respectively.

B6: M103205H795-MY199/M103202L889-SK1 (antibody, human IgG1, kappa)
heavy: B1 heavy with V241S, D270E, M398P
light: B1 light
notes: as for B1
Regarding B6, the Kd in assay [1] came to 19000 nM; in [2], 2000 nM; in assay [3], 12000 nM; in [4], 1100 nM; in assay [5] it was 4100 nM; in assay [6], 11000 nM. Besides, the Kd in assay [7] was found to be 2800 nM; in [8] it was 1900 nM; in [9] it was 15000 nM.

B7: M103205H795-MY201/M103202L889-SK1 (antibody, human IgG1, kappa)
heavy: B1 heavy with V241S, M398P
light: B1 light
notes: also called MS1032LO06-MY201
In the case of B7, the Kd in assay [1] worked out at 14000 nM; in assay [2], 1400 nM; in assay [3], 39000 nM; in assay [4], 430 nM; in assay [5], 5700 nM; in assay [6] it was 910 nM. In addition, the results for the Kd in [7], in assay [8] and in assay [9] were 1900 nM, 1100 nM and 24000 nM, respectively.

B8: M103205H795-MY207/M103202L889-SK1 (antibody, human IgG1, kappa)
heavy: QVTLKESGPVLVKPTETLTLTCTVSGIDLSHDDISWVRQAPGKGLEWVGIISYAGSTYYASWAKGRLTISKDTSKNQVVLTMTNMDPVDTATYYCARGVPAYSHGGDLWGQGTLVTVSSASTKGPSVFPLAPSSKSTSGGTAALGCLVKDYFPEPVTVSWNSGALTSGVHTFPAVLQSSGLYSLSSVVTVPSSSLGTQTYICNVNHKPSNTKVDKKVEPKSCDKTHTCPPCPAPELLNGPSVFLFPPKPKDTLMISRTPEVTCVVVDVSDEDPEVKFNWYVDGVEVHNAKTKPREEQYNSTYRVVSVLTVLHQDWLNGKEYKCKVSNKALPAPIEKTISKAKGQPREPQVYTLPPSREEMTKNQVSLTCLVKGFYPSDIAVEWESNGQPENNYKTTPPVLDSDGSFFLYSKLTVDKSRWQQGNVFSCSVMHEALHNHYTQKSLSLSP
light: B1 light
notes: as for B1
B8: the equilibrium dissociation constant (Kd) in assay [1] was 1500 nM; in assay [2] it was 1400 nM; in [3], 69000 nM; in [4], 820 nM; in [5] it was 4100 nM; in assay [6], 13000 nM. Moreover, the values for the Kd in [7], in assay [8] and in [9] were 2800 nM, 1600 nM and 8000 nM, respectively.

B9: M103205H795-MY205/M103202L889-SK1 (antibody, human IgG1, kappa)
heavy: B1 heavy with V241S, Q297L, M398P
light: B1 light
notes: also called MS1032LO06-MY205
Turning to B9, the Kd came to 900 nM in [1]; 1100 nM in assay [2]; 30000 nM in assay [3]; 250 nM in assay [4]; 6000 nM in assay [5]; 470 nM in [6]. In addition, the Kd in assay [7] came to 1300 nM; in assay [8] it was 560 nM; in assay [9], 15000 nM.
